Measured values published in US20200324001A1 (NATIONAL UNIVERSITY CORPORATION OKAYAMA UNIVERSITY, published 2020).
Values belong to the binder of their own block, whether it stands above or below them.

Key:
[1] = target: T1, human recombinant mesothelin (r-MSLN) (human, UniProt Q13421 296-598, limits assumed); assay: BLI (BLItz, AR2G biosensor), unlabeled scFv against r-MSLN
T1 construct: also called recombinant MSLN; antigen r-MSLN

[2] = target: T1, human recombinant mesothelin (r-MSLN); assay: BLI (BLItz, AR2G biosensor), scFv after DFO modification against r-MSLN
[3] = target: T1, human recombinant mesothelin (r-MSLN); assay: BLI (BLItz, AR2G biosensor), scFv after 89Zr labeling against r-MSLN
Procedure: DFO modification to each His-tag scFv was performed by incubation in bicarbonate buffer at a pH of 9.0 at 37° C. for 1 hour so that the ratio of dissolved chelating agent deferoxamine (p-SCN-Bn-DFO) to His-tag scFv was 3:1. ⁸⁹Zr was produced with a cyclotron (HM-12 cyclotron, Sumitomo Heavy Industries Ltd., Tokyo, Japan), and ⁸⁹Zr-oxalate was obtained. ⁸⁹Zr-oxalate, Na₂CO₃ (2M), and HEPES (0.5 M) were mixed so that the ratio of ⁸⁹Zr-oxalate to Na₂CO₃ (2M) to HEPES (0.5 M) was 2:1:10 and adjusted to a pH of 7.0, and the mixture was mixed with each DFO-modified His-tag scFv clone in which the solvent was replaced with gentisic acid physiological saline (5 mg/mL), followed by incubation at 37° C. for 30 minutes, thereby obtaining ⁸⁹Zr-DFO-scFvs. Unbound ⁸⁹Zr was removed by ultrafiltration using an Amicon Ultra 10K centrifugal filter. The radiochemical purity was determined by thin-layer chromatography-autoradiography (TLC-ARG) and HPLC (LC-20, Shimadzu Co., Kyoto, Japan). […] The in vitro stability of the radiolabeled scFvs after incubation in 50% human plasma/PBS at 37° C. for 6 hours was also analyzed. […] Immediately after mixing and after 6-hour incubation, a portion of the mixture of the radiolabeled scFv and the plasma was measured at 230 nm by HPLC, and the radioactivity was measured with a GABI star (Raytest, Straubenhardt, Germany). […]

[4] = target: T2, mesothelin (MSLN) expressed on human cancer cell lines (human, UniProt Q13421 296-598); assay: flow cytometry on Hela cells; grade of MFI ratio to control (+ = 4.9-1.5)
T2 construct: whole, on cells; also called MSLN expressed in cancer cells
T2 sequence (Q13421 other isoform, or with tags, fused parts or gaps limits assumed): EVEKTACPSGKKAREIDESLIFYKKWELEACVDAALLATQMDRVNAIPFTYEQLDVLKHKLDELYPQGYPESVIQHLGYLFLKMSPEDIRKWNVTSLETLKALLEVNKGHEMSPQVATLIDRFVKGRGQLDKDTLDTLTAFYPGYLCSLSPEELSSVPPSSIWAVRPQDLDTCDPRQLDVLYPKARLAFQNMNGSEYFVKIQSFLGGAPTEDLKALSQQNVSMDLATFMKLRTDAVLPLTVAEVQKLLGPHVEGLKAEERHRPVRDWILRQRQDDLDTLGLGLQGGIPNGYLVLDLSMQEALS
Procedure: (§1) A total of 28 cell lines were used for FCM analysis. The “MSLN exp ref” column indicates positive MSLN expression shown in previous studies. The “MSLN exp FCM” column indicates the ratio of the mean fluorescence intensity […] of the control; a ratio of 5 or more was indicated as “++,” a ratio of 4.9-1.5 was indicated as “+,” and a ratio of 1.4 or less is indicated as “−.”
(§2) The human cancer cell lines (Table 1) were treated with Cell Dissociation Buffer, enzyme-free, PBS (Gibco/Life Technologies, CA, USA) and harvested as single-cell suspensions. 1×10⁶ cells were washed once with cold PBS containing 2% FBS and 1 mM EDTA, and a full-length anti-human MSLN antibody, each anti-human MSLN cp3-scFv clone, or each His-tag scFv clone was used as a primary antibody. For the full-length anti-human MSLN antibody, an anti-KLH antibody (IgG2b isotype control) was used as a negative control, and an Alexa Fluor 488-labeled goat anti-mouse IgG antibody was used as a secondary antibody. […] The mean value of the fluorescence intensity (excluding the dead cell population) was obtained using BD FACSDiva software and calculated using Microsoft Excel.

[5] = target: T2, mesothelin (MSLN) expressed on human …; assay: flow cytometry on 22Rv1 cells; grade of MFI ratio to control (+ = 4.9-1.5)
Procedure: as §1, §2

[6] = target: T2, mesothelin (MSLN) expressed on human …; assay: flow cytometry on MKN45 cells; grade of MFI ratio to control (+ = 4.9-1.5)
Procedure: as §1, §2

[7] = target: T2, mesothelin (MSLN) expressed on human …; assay: flow cytometry on MKN74 cells; grade of MFI ratio to control (+ = 4.9-1.5)
Procedure: as §1, §2

[8] = target: T2, mesothelin (MSLN) expressed on human …; assay: flow cytometry on BxPC-3 cells; grade of MFI ratio to control (+ = 4.9-1.5)
Procedure: as §1, §2

[9] = target: T2, mesothelin (MSLN) expressed on human …; assay: flow cytometry on CFPAC-1 cells; grade of MFI ratio to control (+ = 4.9-1.5)
Procedure: as §1, §2

[10] = target: T2, mesothelin (MSLN) expressed on human …; assay: flow cytometry on HEC-1-A cells; grade of MFI ratio to control (+ = 4.9-1.5)
Procedure: as §1, §2

[11] = target: T2, mesothelin (MSLN) expressed on human …; assay: flow cytometry on SK-OV-3 cells; grade of MFI ratio to control (+ = 4.9-1.5)
Procedure: as §1, §2

[12] = target: T2, mesothelin (MSLN) expressed on human …; assay: flow cytometry on SiHa cells; grade of MFI ratio to control (++ = 5 or more)
Procedure: as §1, §2

[13] = target: T2, mesothelin (MSLN) expressed on human …; assay: flow cytometry on NCI-H596 cells; grade of MFI ratio to control (+ = 4.9-1.5)
Procedure: as §1, §2

[14] = target: T2, mesothelin (MSLN) expressed on human …; assay: flow cytometry on NCI-N87 cells; grade of MFI ratio to control (++ = 5 or more)
Procedure: as §1, §2

[15] = target: T2, mesothelin (MSLN) expressed on human …; assay: flow cytometry on OVCAR-3 cells; grade of MFI ratio to control (++ = 5 or more)
Procedure: as §1, §2

[16] = target: T2, mesothelin (MSLN) expressed on human …; assay: flow cytometry on NCI-H226 cells; grade of MFI ratio to control (++ = 5 or more)
Procedure: as §1, §2

T1 sequence (Q13421 other isoform, or with tags, fused parts or gaps limits assumed): as above

B1: anti-human MSLN His-tag scFv clone H2a064 (scFv)
scFv: SYELTQPPSVSVSPGQTARITCSGDALPKHYASWYQQKPGQAPVLLIYKDTERPSGIPERFSGSSSGTTVTLTISGVQAEDEADYYCQSADSSVTVVFGGGTKLTVLGGGGSGGGGSGGGGSGGGGSQVQLVQSGGGLVQPGRSLRLSCAASGFTFDDYAMHWVRQAPGKGLEWVSGISWNSGSIGYADSVKGRFTISRDNAKNSLYLQMNSLRAEDTALYYCAKDIGSSGWYGAFDIWGQGTTVTVSSGG
notes: Unlabeled His-tag scFv expressed in CHO cells; also called His-tag scFv H2a064; His-Tag-scFv H2a064
Kd [1]: 59.6 nM

B3: 89Zr-DFO-scFv H2a064 (scFv)
scFv: SYELTQPPSVSVSPGQTARITCSGDALPKHYASWYQQKPGQAPVLLIYKDTERPSGIPERFSGSSSGTTVTLTISGVQAEDEADYYCQSADSSVTVVFGGGTKLTVLGGGGSGGGGSGGGGSGGGGSQVQLVQSGGGLVQPGRSLRLSCAASGFTFDDYAMHWVRQAPGKGLEWVSGISWNSGSIGYADSVKGRFTISRDNAKNSLYLQMNSLRAEDTALYYCAKDIGSSGWYGAFDIWGQGTTVTVSSGG
modifications: deferoxamine (p-SCN-Bn-DFO) conjugated and loaded with 89Zr; sites not stated
notes: Same polypeptide as H2a064 His-tag scFv, DFO-modified and 89Zr-labeled; also called H2a064 after 89Zr labeling; 89Zr-labeled DFO-His-tag-scFv H2a064
Kd [3]: 78.2 nM

B4: anti-human MSLN His-tag scFv clone H1a050 (scFv)
scFv: SYELTQPPSVSVSPGQTARITCSGNALPKQYAYWYQQKPGQAPVLMIYKDSERPSGIPERFSGSSSGTTVTLTISGVQAEDEADYYCQSADSSHTYKVFGGGTKLTVLGGGGSGGGGSGGGGSGGGGSEVQLVQSGGGLVQPDRSLRLSCAASGFTFDDYAMHWVRQAPGKGLEWVSGISWNSGSIGYADSVKGRFTISRDNAKNSLYLQMNSLRAEDTALYYCAKDLGSYYGSGSGMDVWGQGTTVTVSSGG
notes: Unlabeled His-tag scFv expressed in CHO cells; also called His-tag scFv H1a050; His-Tag-scFv H1a050
Kd [1]: 4.68 nM | ratio of MFI of scFv clone H1a050 to MFI of control (flow cytometry) [4]: 1.5 to 4.9 ratio | ratio of MFI of scFv clone H1a050 to MFI of control (flow cytometry) [5]: 1.5 to 4.9 ratio | ratio of MFI of scFv clone H1a050 to MFI of control (flow cytometry) [6]: 1.5 to 4.9 ratio | ratio of MFI of scFv clone H1a050 to MFI of control (flow cytometry) [7]: 1.5 to 4.9 ratio | ratio of MFI of scFv clone H1a050 to MFI of control (flow cytometry) [8]: 1.5 to 4.9 ratio | ratio of MFI of scFv clone H1a050 to MFI of control (flow cytometry) [9]: 1.5 to 4.9 ratio | ratio of MFI of scFv clone H1a050 to MFI of control (flow cytometry) [10]: 1.5 to 4.9 ratio | ratio of MFI of scFv clone H1a050 to MFI of control (flow cytometry) [11]: 1.5 to 4.9 ratio | ratio of MFI of scFv clone H1a050 to MFI of control (flow cytometry) [12]: ≥ 5 ratio | ratio of MFI of scFv clone H1a050 to MFI of control (flow cytometry) [13]: 1.5 to 4.9 ratio | ratio of MFI of scFv clone H1a050 to MFI of control (flow cytometry) [14]: ≥ 5 ratio | ratio of MFI of scFv clone H1a050 to MFI of control (flow cytometry) [15]: ≥ 5 ratio | ratio of MFI of scFv clone H1a050 to MFI of control (flow cytometry) [16]: ≥ 5 ratio

B5: DFO-modified His-tag scFv H1a050 (scFv)
scFv: SYELTQPPSVSVSPGQTARITCSGNALPKQYAYWYQQKPGQAPVLMIYKDSERPSGIPERFSGSSSGTTVTLTISGVQAEDEADYYCQSADSSHTYKVFGGGTKLTVLGGGGSGGGGSGGGGSGGGGSEVQLVQSGGGLVQPDRSLRLSCAASGFTFDDYAMHWVRQAPGKGLEWVSGISWNSGSIGYADSVKGRFTISRDNAKNSLYLQMNSLRAEDTALYYCAKDLGSYYGSGSGMDVWGQGTTVTVSSGG
modifications: deferoxamine (p-SCN-Bn-DFO) conjugated, chelator to scFv ratio 3:1 in the reaction; sites not stated
notes: Same polypeptide as H1a050 His-tag scFv, carrying the DFO chelator; also called H1a050 after DFO modification; DFO-His-tag-scFv H1a050
Kd [2]: 3.38 nM

Further lines, results first:

Kd [2]: 114 nM
B2: DFO-modified His-tag scFv H2a064 (scFv)
scFv: SYELTQPPSVSVSPGQTARITCSGDALPKHYASWYQQKPGQAPVLLIYKDTERPSGIPERFSGSSSGTTVTLTISGVQAEDEADYYCQSADSSVTVVFGGGTKLTVLGGGGSGGGGSGGGGSGGGGSQVQLVQSGGGLVQPGRSLRLSCAASGFTFDDYAMHWVRQAPGKGLEWVSGISWNSGSIGYADSVKGRFTISRDNAKNSLYLQMNSLRAEDTALYYCAKDIGSSGWYGAFDIWGQGTTVTVSSGG
modifications: deferoxamine (p-SCN-Bn-DFO) conjugated, chelator to scFv ratio 3:1 in the reaction; sites not stated
notes: Same polypeptide as H2a064 His-tag scFv, carrying the DFO chelator; also called H2a064 after DFO modification; DFO-His-tag-scFv H2a064

Kd [3]: 46.2 nM
B6: 89Zr-DFO-scFv H1a050 (scFv)
scFv: SYELTQPPSVSVSPGQTARITCSGNALPKQYAYWYQQKPGQAPVLMIYKDSERPSGIPERFSGSSSGTTVTLTISGVQAEDEADYYCQSADSSHTYKVFGGGTKLTVLGGGGSGGGGSGGGGSGGGGSEVQLVQSGGGLVQPDRSLRLSCAASGFTFDDYAMHWVRQAPGKGLEWVSGISWNSGSIGYADSVKGRFTISRDNAKNSLYLQMNSLRAEDTALYYCAKDLGSYYGSGSGMDVWGQGTTVTVSSGG
modifications: deferoxamine (p-SCN-Bn-DFO) conjugated and loaded with 89Zr; sites not stated
notes: Same polypeptide as H1a050 His-tag scFv, DFO-modified and 89Zr-labeled; also called H1a050 after 89Zr labeling; 89Zr-labeled DFO-His-tag-scFv H1a050
